Source: article PMC3258846 (Molecular Cell, 2011)

Assays:
GST-ASCC3-B = GST-ASCC3-B (human, UniProt Q8N3C0 401-1300); test: pull-down
GST-ASCC3-C = GST-ASCC3-C (human, UniProt Q8N3C0 1301-2202); test: pull-down
Chain of GST-ASCC3-C (Q8N3C0 1301-2202): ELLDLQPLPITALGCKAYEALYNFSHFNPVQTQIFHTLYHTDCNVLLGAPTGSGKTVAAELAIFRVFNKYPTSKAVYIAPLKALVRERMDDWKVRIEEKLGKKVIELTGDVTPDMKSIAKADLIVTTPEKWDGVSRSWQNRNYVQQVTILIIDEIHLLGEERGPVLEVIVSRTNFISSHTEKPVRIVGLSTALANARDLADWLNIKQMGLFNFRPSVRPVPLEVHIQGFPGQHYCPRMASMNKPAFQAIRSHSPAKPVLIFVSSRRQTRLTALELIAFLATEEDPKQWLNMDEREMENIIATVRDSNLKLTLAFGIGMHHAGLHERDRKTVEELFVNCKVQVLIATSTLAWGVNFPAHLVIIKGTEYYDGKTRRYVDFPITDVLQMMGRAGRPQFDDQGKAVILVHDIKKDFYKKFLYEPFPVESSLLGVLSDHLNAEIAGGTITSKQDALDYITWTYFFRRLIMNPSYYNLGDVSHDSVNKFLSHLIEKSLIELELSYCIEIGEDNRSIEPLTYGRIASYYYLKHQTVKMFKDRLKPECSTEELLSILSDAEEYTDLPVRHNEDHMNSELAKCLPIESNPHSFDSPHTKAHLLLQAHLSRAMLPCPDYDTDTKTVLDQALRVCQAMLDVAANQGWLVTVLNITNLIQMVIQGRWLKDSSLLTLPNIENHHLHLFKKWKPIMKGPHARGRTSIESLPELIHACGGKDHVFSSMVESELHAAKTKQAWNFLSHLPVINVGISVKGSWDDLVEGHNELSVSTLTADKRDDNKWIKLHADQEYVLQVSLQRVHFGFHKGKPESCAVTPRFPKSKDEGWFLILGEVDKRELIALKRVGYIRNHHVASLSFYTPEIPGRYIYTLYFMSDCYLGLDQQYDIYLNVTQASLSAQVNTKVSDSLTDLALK

Chain of GST-ASCC3-B (Q8N3C0 401-1300): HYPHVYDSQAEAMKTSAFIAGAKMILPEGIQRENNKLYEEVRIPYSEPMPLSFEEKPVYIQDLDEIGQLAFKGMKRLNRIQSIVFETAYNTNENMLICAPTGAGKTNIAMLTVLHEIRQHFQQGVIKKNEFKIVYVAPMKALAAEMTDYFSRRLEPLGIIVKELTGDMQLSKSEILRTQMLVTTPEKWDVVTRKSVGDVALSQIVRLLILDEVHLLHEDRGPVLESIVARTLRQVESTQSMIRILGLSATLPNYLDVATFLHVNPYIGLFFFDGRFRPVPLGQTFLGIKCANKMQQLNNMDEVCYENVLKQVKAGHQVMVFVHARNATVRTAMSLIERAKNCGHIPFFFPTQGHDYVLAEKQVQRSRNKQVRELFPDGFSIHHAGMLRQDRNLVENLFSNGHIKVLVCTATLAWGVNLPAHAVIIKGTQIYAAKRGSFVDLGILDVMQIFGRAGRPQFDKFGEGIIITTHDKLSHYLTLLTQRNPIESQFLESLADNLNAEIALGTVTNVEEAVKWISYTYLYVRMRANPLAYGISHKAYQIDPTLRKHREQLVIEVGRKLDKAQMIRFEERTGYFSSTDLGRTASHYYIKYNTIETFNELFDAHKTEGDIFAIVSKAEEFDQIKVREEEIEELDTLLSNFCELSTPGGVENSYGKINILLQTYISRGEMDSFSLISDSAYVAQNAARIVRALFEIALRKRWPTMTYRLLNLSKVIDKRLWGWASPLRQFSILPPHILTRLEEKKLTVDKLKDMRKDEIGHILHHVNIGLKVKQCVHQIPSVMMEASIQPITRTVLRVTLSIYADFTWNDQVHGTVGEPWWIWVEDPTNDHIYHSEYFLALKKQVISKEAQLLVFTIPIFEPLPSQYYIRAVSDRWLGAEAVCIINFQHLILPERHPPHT

binding result (GST-ASCC3-B): binds
binding result (GST-ASCC3-C): binds
B1: His6-ALKBH3 (enzyme, human, UniProt Q96Q83 1-286, looked up)
chain: MEEKRRRARVQGAWAAPVKSQAIAQPATTAKSHLHQKPGQTWKNKEHHLSDREFVFKEPQQVVRRAPEPRVIDREGVYEISLSPTGVSRVCLYPGFVDVKEADWILEQLCQDVPWKQRTGIREDITYQQPRLTAWYGELPYTYSRITMEPNPHWHPVLRTLKNRIEENTGHTFNSLLCNLYRNEKDSVDWHSDDEPSLGRCPIIASLSFGATRTFEMRKKPPPEENGDYTYVERVKIPLDHGTLLIMEGATQADWQHRVPKEYHSREPRVNLTFRTVYPDPRGAPW
